The test system of series [1] is Nterm (position 1, -----ECG---). Nature of the series: potentiometry. The settings on record: 25 °C; 0.1 M (4 mM HNO3 + 96 mM KNO3); none (4 mM HNO3 / 96 mM KNO3); metal-free peptide, reduced thiols, argon atmosphere, 0.5-1.5 mM ligand.
Series [2] deals with Glu1 (position 1, -----ECG---). Nature of the series: potentiometry. The settings on record: 25 °C; 0.1 M (4 mM HNO3 + 96 mM KNO3); none (4 mM HNO3 / 96 mM KNO3); metal-free peptide, reduced thiols, argon atmosphere, 0.5-1.5 mM ligand.
The test system of series [3] is Cys2 (position 2, ----ECG----). As to the kind of experiment: potentiometry. Conditions: 25 °C; 0.1 M (4 mM HNO3 + 96 mM KNO3); none (4 mM HNO3 / 96 mM KNO3); metal-free peptide, reduced thiols, argon atmosphere, 0.5-1.5 mM ligand.
For series [4], the system named is Cterm (position 3, ---ECG-----). As to the kind of experiment: potentiometry. The settings on record: 25 °C; 0.1 M (4 mM HNO3 + 96 mM KNO3); none (4 mM HNO3 / 96 mM KNO3); metal-free peptide, reduced thiols, argon atmosphere, 0.5-1.5 mM ligand.
The target of series [5] is Nterm1. As to the kind of experiment: NMR. The settings on record: metal-free PC2; cited from earlier work.
The target in series [6] is Cys2. As to the kind of experiment: NMR. The settings on record: metal-free PC2; cited from earlier work.
For series [7], the target named is Cys1. Nature of the series: NMR. Conditions: metal-free PC2; cited from earlier work.
In a further series the target is Glu1. Nature of the series: potentiometry. Conditions: 25 °C; 0.1 M (4 mM HNO3 + 96 mM KNO3); none (4 mM HNO3 / 96 mM KNO3); metal-free peptide, reduced thiols, argon atmosphere, 0.5-1.5 mM ligand.
Another series concerns the target Glu2. Nature of the series: potentiometry. The settings on record: 25 °C; 0.1 M (4 mM HNO3 + 96 mM KNO3); none (4 mM HNO3 / 96 mM KNO3); metal-free peptide, reduced thiols, argon atmosphere, 0.5-1.5 mM ligand.
A further series has as its target Cterm5. Nature of the series: potentiometry. The settings on record: 25 °C; 0.1 M (4 mM HNO3 + 96 mM KNO3); none (4 mM HNO3 / 96 mM KNO3); metal-free peptide, reduced thiols, argon atmosphere, 0.5-1.5 mM ligand.
Series [8] addresses Nterm1. As to the kind of experiment: potentiometry. Conditions: 25 °C; 0.1 M (4 mM HNO3 + 96 mM KNO3); none (4 mM HNO3 / 96 mM KNO3); metal-free peptide, reduced thiols, argon atmosphere, 0.5-1.5 mM ligand.
For series [9], the target named is Cys2. Nature of the series: potentiometry. The settings on record: 25 °C; 0.1 M (4 mM HNO3 + 96 mM KNO3); none (4 mM HNO3 / 96 mM KNO3); metal-free peptide, reduced thiols, argon atmosphere, 0.5-1.5 mM ligand.
Series [10] has as its target Cys1. Nature of the series: potentiometry. Conditions: 25 °C; 0.1 M (4 mM HNO3 + 96 mM KNO3); none (4 mM HNO3 / 96 mM KNO3); metal-free peptide, reduced thiols, argon atmosphere, 0.5-1.5 mM ligand.

As usually defined, the pKa is the pH at which an ionisable group is half protonated.

Regarding “Glutathione (GSH, reduced) (not applicable (commercial reduced L-glutathione, Sigma-Aldrich))”, the pKa in series [1] was 9.65; in [2] it was 1.95; in series [3], 8.76; in [4], 3.64.
Turning to ECECG, the pKa in the series with Nterm1 [5] is 10.01; with Cys2 [6], 9.40; in the series with Cys1 [7] it was 9.53; with Glu1 it was 2.43; in the series with Glu2, 3.17; with Cterm5 it was 4.30. The pKa in the series with Nterm1 [8] was found to be 10.25; in the series with Cys2 [9], 8.59; with Cys1 [10] it was 9.69.

(Values after article PMC8041291.)
